Data set [1] concerns the target T1, Trx-PIF4 (Arabidopsis thaliana, UniProt Q8W2F3 1-430).
T1 sequence: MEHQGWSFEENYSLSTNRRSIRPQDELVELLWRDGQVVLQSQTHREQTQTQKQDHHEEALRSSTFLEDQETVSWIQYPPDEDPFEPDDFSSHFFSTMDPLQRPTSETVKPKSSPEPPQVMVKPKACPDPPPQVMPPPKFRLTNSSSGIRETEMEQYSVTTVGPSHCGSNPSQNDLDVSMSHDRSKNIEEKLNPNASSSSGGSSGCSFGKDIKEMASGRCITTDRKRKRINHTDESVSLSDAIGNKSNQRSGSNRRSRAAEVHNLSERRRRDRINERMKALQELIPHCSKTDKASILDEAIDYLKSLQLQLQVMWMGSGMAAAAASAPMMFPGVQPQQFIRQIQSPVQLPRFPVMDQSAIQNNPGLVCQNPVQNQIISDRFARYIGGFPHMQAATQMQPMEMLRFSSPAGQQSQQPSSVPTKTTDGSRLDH
The data set is described as follows: EMSA; LightShift Chemiluminescent EMSA Kit, 100 fmol biotin-labeled DNA, 20 min at room temperature, native 6% PAGE in 0.5x TBE; binding buffer, salt and pH not stated. The following applies: protein: recombinant; tags: N-terminal Trx (pET32b); label: 3' biotin.

Substrate in data set [2]: COc1ccc2[nH]cc(CCNC(C)=O)c2c1
The data set is described as follows: purified protein. Particulars: pH 8.0, GST fusion protein, substrate not named beside the value, implied by M2H activity.

Data set [3] deals with T1, Trx-PIF4. Nature of the data set: EMSA; greatest binding of the probes; LightShift Chemiluminescent EMSA Kit, 100 fmol biotin-labeled DNA, 20 min at room temperature, native 6% PAGE in 0.5x TBE; binding buffer, salt and pH not stated. The following applies: protein: recombinant; tags: N-terminal Trx (pET32b); label: 3' biotin.

The values that follow come from publication PMC12316515, “PIF4‐dependent 2‐hydroxymelatonin and 3‐hydroxymelatonin biosynthesis is involved in skotomorphogenic seedling growth in Arabidopsis thaliana”.

B1: M2H E2 (dsDNA)
DNA 1: GATGACTATTTTCATTTGATAATATATCCA
DNA 2: TGGATATATTATCAAATGAAAATAGTCATC
B1: the binding result in data set [1] was “binds”.

B2: AtM2H (Arabidopsis melatonin 2-hydroxylase) (Arabidopsis thaliana) (protein)
chain: MEETNKSVVNDYFTSAMELTESGDPHVPTRYILPPSQRPMLGPSIGTSTINLPVIDLSFLHDPLLRLCVIHEIELACKGFGFFQVINHGISSAVVKDAQDSATRFFDLPADEKMHLVSDNFQEPVRYGTSINHSTDRVHYWRDFIKHYSHPLSNWINLWPSNPPCYKEKVGKYAEATHVLHKQLIEAISESLGLEKNYLQEEIEEGSQVMAVNCYPACPEPEIALGMPPHSDYGSLTILLQSSEGLQIKDCNNNWVCVPYIEGALIVQLGDQVEVMSNGIYKSVVHRVTVNKDYKRLSFASLHSLPMHKKISPATQLVNENKPAAYGEFSFNDFLDYISRNDITQKRFIDTLRKKNL
For the molecule B2, in data set [2], the Km was determined as 355 µM.

B3: M3H E1/E2 (dsDNA)
DNA 1: CATACCATATGTCTTTTATCATCTGTCCTT
DNA 2: AAGGACAGATGATAAAAGACATATGGTATG
As for B3, the binding result in data set [1] is given as “binds”.

B4: M3H E3 (dsDNA)
DNA 1: CAATGTTAAAGACACATGAACGTTGGGATA
DNA 2: TATCCCAACGTTCATGTGTCTTTAACATTG
Take B4: in data set [3], the binding result is listed as “binds”.
